This is an account of results in PMC11672978, “Assessing the Impact of the Leader Peptide in Protease Inhibition by the Microviridin Family of RiPPs” (Biomedicines, 2024).

The target of test [1] is elastase. The following applies: mature natural product without leader peptide; read-out: previously reported IC50 for elastase inhibition; cited from earlier work. The source says:
Although, the IC50 value we measured is certainly an overestimation of the actual IC50 as it is less than half the concentration of the elastase used in the assay.

The target in test [2] is Elastase.
The target of test [3] is Elastase. The source holds these as a separate data set.

The IC50 is the concentration needed to halve the response being measured. On to microviridin B, for which, at elastase [1], the IC50 is 25 nM. As to “MdnA Δ2 (bicyclic microviridin B precursor peptide modified by MdnC only, leader peptide present, N-terminal His-tag)”, the IC50 of inhibition of the hydrolysis of the fluorogenic substrate MeOSuc-AAPV-AMC by elastase (20 nM elastase, 10 nM-10,000 nM MdnA Δ2, 100 mM HEPES pH 8.0, 10% DMSO, room temperature) with Elastase [2] turned out to be 0.84 µM. Take “MdnA Δ3 (tricyclic, fully modified microviridin B precursor peptide with the leader peptide present, N-terminal His-tag)”: the IC50 of inhibition of the hydrolysis of the fluorogenic substrate MeOSuc-AAPV-AMC by elastase (20 nM elastase, 0.1 nM-100 nM MdnA Δ3, 100 mM HEPES pH 8.0, 10% DMSO, room temperature) in the test with Elastase [3] was determined as 0.0083 µM.
